No end group written: not given here. *: point of attachment. maleimido‑mono‑amide‑DOTA = O=C(O)CN1CCN(CC(=O)O)CCN(CC(=O)NCCN2C(=O)CC(*)C2=O)CCN(CC(=O)O)CC1; NAM = N-norbiotinyl-β-maleimidopropionylamide, biotin derivative conjugated to Cys thiol
What was measured:
[1] = biological target: T1, VCAM-1 expressed on HUVEC (Homo sapiens, UniProt P19320); test: In vitro test of 68Ga-MacroP on HUVEC (LigandTracer radioactive uptake); format: cell-based; design: endogenous in cells; host or cells: primary HUVEC stimulated with 10 ng/mL TNF-alpha for 4 h; conditions: HUVEC activated with 10 ng/mL TNF-α for 4 h vs unstimulated HUVEC; 5 MBq 68Ga-MacroP in 3 mL saline; LigandTracer White
T1 sequence (P19320 25-739): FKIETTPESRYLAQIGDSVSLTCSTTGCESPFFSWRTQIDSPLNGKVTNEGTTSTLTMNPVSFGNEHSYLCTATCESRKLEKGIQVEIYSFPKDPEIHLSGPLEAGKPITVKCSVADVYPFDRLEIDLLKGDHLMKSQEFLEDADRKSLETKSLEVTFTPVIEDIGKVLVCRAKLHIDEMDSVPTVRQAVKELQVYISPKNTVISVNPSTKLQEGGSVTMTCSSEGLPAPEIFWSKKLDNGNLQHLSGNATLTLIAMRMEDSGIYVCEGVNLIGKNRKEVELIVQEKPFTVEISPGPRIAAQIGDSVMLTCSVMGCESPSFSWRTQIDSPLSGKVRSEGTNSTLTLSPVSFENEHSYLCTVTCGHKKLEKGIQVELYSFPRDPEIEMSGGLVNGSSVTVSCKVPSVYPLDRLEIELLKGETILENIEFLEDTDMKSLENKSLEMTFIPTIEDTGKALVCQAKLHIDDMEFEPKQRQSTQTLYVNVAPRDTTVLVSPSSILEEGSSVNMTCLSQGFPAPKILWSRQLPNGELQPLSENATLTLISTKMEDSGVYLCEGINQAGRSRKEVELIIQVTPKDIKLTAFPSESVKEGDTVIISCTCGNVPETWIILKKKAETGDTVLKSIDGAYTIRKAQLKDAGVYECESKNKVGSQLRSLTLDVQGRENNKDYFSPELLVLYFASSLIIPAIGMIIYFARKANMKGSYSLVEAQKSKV
Source text: (§1) Human Umbilical Vein Endothelial Cells (HUVEC) were obtained from human umbilical cords collected from full-term women immediately after cesarean section at the Gynecology and Obstetrics Department of International Evangelical Hospital in Genoa (Italy), after patients’ informed consent and the approval (register number 2/2010-19, February, 2010) by the Institutional Ethical Committee. Each cord vein was individually processed for obtaining endothelial cells through mechanical dissociation of the tissue and collagenase digestion. Cells were maintained in culture medium EndoGRO-LS Complete Culture Media Kit seeded on attachment factor-coated plates. For labeling experiments, 8 × 10^5 cells were plated on Petri dishes in EndoGRO Basal Medium (SCME-BM) and allowed to attach overnight prior stimulation with 10 ng/mL of TNF-alpha (TNF-α) for 4 h. Cells without TNF-α treatment were used as control (Figures S19 and S20).
The binding assay of ^68Ga-MacroP with VCAM-1 expressed on HUVEC was monitored using LigandTracer® White (Ridgeview Instruments AB, Uppsala, Sweden) according to our previously validated procedure. Briefly, the tool consists of a beta-emission detector and a rotating platform harboring a standard Petri dish. […] The binding of radioactivity to cell-containing areas and reference areas was recorded. […]

avidin = avidin (Gallus gallus, UniProt P02701); test: NAMP-avidin binding (ultrafiltration, RP-HPLC, capillary electrophoresis); conditions: approx. 0.17 mM NAMP with avidin 2.5 μg/μL, 37 °C, 2 h; 30 kD cut-off ultrafiltration; RP-HPLC of ultrafiltrate, capillary electrophoresis of retentate
Chain of avidin (P02701 25-152, species assumed): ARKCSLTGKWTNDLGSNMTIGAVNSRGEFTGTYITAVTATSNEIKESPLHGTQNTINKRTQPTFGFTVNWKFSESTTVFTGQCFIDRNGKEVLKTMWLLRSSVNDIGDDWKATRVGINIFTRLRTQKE
Experimental: Avidin was dissolved in ultrapure water (2.5 μg/μL). This solution (100 μL) was mixed with a NAMP solution (approx. 0.17 mM) and heated at 37 °C under 400 rpm orbital shaking for 2 h. The mixture was placed in an ultrafiltration system with a regenerated cellulose membrane (30 kD cut-off), and washed with 250 μL of ultrapure water at 1400 g for 20 min at 15 °C. By inverted spinning at 1000 g for 3 min, the retentate was recovered and analyzed by capillary electrophoresis (Agilent Technologies 7100 Capillary Electrophoresis, Santa Clara, CA, USA). Separations were performed in a bare fused-silica capillary 50 μm (i.d.) × 64.5 cm (L) × 50 cm (L), activated with 1 M aqueous NaOH, 0.1 M aqueous NaOH and washed with ultrapure water. The conditioning and the run were carried out with 50 mM sodium phosphate buffer (pH 2.5), used also for 120 s preconditioning before injection. The gradient voltage was from 0 to 30 kV in 0.2 min.

[2] = biological target: T1, VCAM-1 expressed on HUVEC; test: In vitro test of NAMP-avidin-68Ga-BisDOTA on HUVEC (three-step pretargeting, LigandTracer); format: cell-based; design: endogenous in cells; host or cells: primary HUVEC stimulated with TNF-alpha
Source text: as §1, with “Cells without TNF-α treatment were used as control (Figures S19 and S20).” left out
After removing the culture medium containing TNF-α, stimulated HUVEC were incubated at 37 °C with 4 nmol of NAMP for 20 min and afterwards with 3.5 nmol of NeutrAvidin™ for 10 min. After washing and replacing the culture medium with 3 mL of the saline solution containing 5MBq of ^68Ga-BisDOTA (specific activity 37.0 MBq/nmol), the binding assay of ^68Ga-BisDOTA with the NAMP-avidin complex, bound to the VCAM-1 expressed on HUVEC, was monitored using the same procedure described in Section 2.3.5.

[3] = deglycosylated form of avidin; cited from earlier work
Experimental: After radiolabeling with ^68Ga, both MacroP and NAMP were tested on human endothelial cells. Quantitative PCR and Fluorescence-Activated Cell Sorting (FACS) analysis were performed prior to the experiments, to assess the expression of VCAM-1 on HUVEC. To avoid excessive stress for the cells, they were activated with TNF-α for 4 h only. In the three-step pretargeting test, a commercially available deglycosylated form of avidin (NeutrAvidin™) was employed because it is characterized by reduced non-specific binding, low isoelectric point (~6.3) and low production cost with respect to ...

Substance: MacroP: reaction product of maleimido-mono-amide-DOTA with the cysteine thiol of the VCAM-1-binding peptide VHPKQHRGGSKGC (VHPKQHRGGSKGC(maleimido‑mono‑amide‑DOTA))
- radiosignal uptake of activated cells compared to control cells [1]: 4 fold

Substance: NAMP: biotin derivative: NAM (N-norbiotinyl-β-maleimidopropionylamide) conjugated to the cysteine thiol of VHPKQHRGGSKGC, for three-step pretargeting (VHPKQHRGGSKGC(NAM))
- avidin binding: unbound NAMP in the ultrafiltrate (avidin): no unbound NAMP could be detected
- radioactive uptake of activated cells compared to the controls ([2]; HUVEC activated with 10 ng/mL TNF-α for 4 h vs unstimulated, 4 nmol NAMP 20 min at 37 °C, 3.5 nmol NeutrAvidin 10 min, then 5 MBq 68Ga-BisDOTA in 3 mL saline): 12 fold
- uptake of radioactivity, activated cells versus control cells (in words) ([2]; TNF-α activated HUVEC vs control, NAMP, then NeutrAvidin and 68Ga-BisDOTA, p < 0.05): evidently higher uptake of radioactivity compared to the control cells

Substance: NeutrAvidin™: commercially available deglycosylated form of avidin
- isoelectric point [3]: ~ 6.3

From PMC8309178, “Two Novel PET Radiopharmaceuticals for Endothelial Vascular Cell Adhesion Molecule-1 (VCAM-1) Targeting” (Pharmaceutics, 2021)
